Reference: patent publication US20060228349A1

Experiments:
Aβ1-20 peptide = experiment: solution equilibrium titration, free IgG by ELISA, GraFit; SE 3.53
[1] = target: amyloid beta (1-40) peptide; experiment: solution equilibrium titration, free IgG by ELISA, GraFit; SE 0.62
[2] = target: ADDL fibril preparation (Aβ1-42 fibrils); experiment: solution equilibrium titration, free IgG by ELISA, GraFit; SE 0.12
[3] = target: Aβ-derived diffusible ligands (synthetic ADDLs), soluble oligomers of amyloid β1-42; experiment: solution equilibrium titration, free IgG by ELISA, GraFit; SE 0.042

Sequence of Aβ1-20 peptide (peptide, as listed by the source): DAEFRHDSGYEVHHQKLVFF

- Kd (Aβ1-20 peptide): 19.3 nM
- Kd [1]: 6.15 nM
- Kd [2]: 1.15 nM
- Kd [3]: 0.57 nM
Substance: monoclonal antibody WO-2
